Assay results reported in PMC8423306, “Coordinated action of multiple transporters in the acquisition of essential cationic amino acids by the intracellular parasite Toxoplasma gondii” (PLoS Pathogens, 2021).

Experiments:
TgApiAT6-1 [1] = molecular target: T1, TgApiAT6-1 (Toxoplasma gondii, UniProt A0A125YQS6); test: radiolabelled uptake in Xenopus oocytes; inhibition of Arg uptake at […]; trans-stimulation; assay type: cell-based
T1 construct: gene ApiAT6-1; HA-tagged TgApiAT6-1 open reading frame expressed in Xenopus laevis oocytes
T1 sequence (A0A125YQS6 1-566): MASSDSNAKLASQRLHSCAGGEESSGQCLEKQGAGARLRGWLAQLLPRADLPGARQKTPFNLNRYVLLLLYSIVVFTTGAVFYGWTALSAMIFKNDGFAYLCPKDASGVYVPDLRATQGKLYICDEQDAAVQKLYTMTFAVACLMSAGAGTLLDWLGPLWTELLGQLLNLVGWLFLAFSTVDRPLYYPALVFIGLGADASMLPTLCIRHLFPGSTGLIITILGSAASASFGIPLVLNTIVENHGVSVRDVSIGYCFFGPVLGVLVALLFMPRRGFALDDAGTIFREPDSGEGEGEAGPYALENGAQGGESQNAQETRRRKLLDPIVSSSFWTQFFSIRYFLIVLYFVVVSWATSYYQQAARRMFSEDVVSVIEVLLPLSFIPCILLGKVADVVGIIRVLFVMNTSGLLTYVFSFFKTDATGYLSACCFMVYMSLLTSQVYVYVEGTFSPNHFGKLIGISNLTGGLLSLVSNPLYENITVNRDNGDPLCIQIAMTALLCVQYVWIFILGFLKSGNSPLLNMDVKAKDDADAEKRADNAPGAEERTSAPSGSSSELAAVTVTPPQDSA

TgApiAT6-1 [2] = molecular target: T1, TgApiAT6-1; test: inhibition of […]Arg uptake at […] and trans-stimulation of Arg efflux in Xenopus oocytes; assay type: cell-based
TgApiAT6-1 [3] = molecular target: T1, TgApiAT6-1; test: inhibition of […]Arg uptake at […] and trans-stimulation of Arg uptake in Xenopus oocytes; assay type: cell-based
[4] = substrate: N=C(N)NCCC[C@H](N)C(=O)O; test: cells, lysate or membranes; assay type: cell-based, Toxoplasma gondii; settings: same binding site as Lys
[5] = substrate: NCCCC[C@H](N)C(=O)O; test: cells, lysate or membranes; assay type: cell-based, Toxoplasma gondii; settings: same binding site as Arg; competitive with Arg

CC(C)C[C@H](N)C(=O)O [Leu, leucine] was tested, and the “radiolabelled uptake in Xenopus oocytes; inhibition of Arg uptake at 10 mM; tran” value (TgApiAT6-1 [1]) was “TgApiAT6-1 also mediated uptake of Arg and some neutral amino acids including Met and Leu”.

With N[C@@H](Cc1c[nH]cn1)C(=O)O [His, histidine] the “inhibition of [14C]Arg uptake at 10 mM and trans-stimulation of Arg efflux in Xe” value (TgApiAT6-1 [2]) was “numerous neutral amino acids including Met, Leu, Phe and His partially inhibited Arg uptake”.

In the case of N[C@@H](Cc1ccccc1)C(=O)O [Phe, phenylalanine], the “inhibition of [14C]Arg uptake at 10 mM and trans-stimulation of Arg uptake in Xe” value (TgApiAT6-1 [3]) is reported as “numerous neutral amino acids including Met, Leu, Phe and His partially inhibited Arg uptake”.

For CSCC[C@H](N)C(=O)O [Met, methionine], the “radiolabelled uptake in Xenopus oocytes; inhibition of Arg uptake at 10 mM; tran” value (TgApiAT6-1 [1]) was “TgApiAT6-1 also mediated uptake of Arg and some neutral amino acids including Met and Leu”.

B1: TgApiAT6-1 (Toxoplasma gondii ME49) (protein)
chain: T1 sequence (A0A125YQS6 1-566)
notes: HA-tagged TgApiAT6-1 open reading frame expressed in Xenopus laevis oocytes
B1 gave a K0.5 [4] of 748 µM, a kcat [4] of 0.28 ± 0.1 s⁻¹ and a kcat/Km [4] of 379 M⁻¹ s⁻¹. It also gave a K0.5 [5] of 22.8 µM, a kcat [5] of 0.042 ± 0.004 s⁻¹ and a kcat/Km [5] of 1840 M⁻¹ s⁻¹.
